Measured values as given in publication PMC10873366.

Experiments:
[1] = target: Sox2 N-terminal domain and DBD (N-DBD); experiment: NMR; residue Ser 290; conditions: domain or fragment; Limits are not printed. They are inferred from the C-IDR label position 120, the +9/-9 charge count, and 180 observable HSQC peaks (198 residues minus 17 Pro and the N-terminal residue). The NMR sample was 15N-labelled or unlabelled. The His6-SUMO tag was removed. The smFRET version carries dyes at 120 and 265. Limits are not printed. They are inferred from 109 expected HSQC peaks (119 residues m); modification not given
[2] = target: Sox2 N-terminal domain and DBD (N-DBD); experiment: NMR; residue Ala 287; conditions: domain or fragment; Limits are not printed. They are inferred from the C-IDR label position 120, the +9/-9 charge count, and 180 observable HSQC peaks (198 residues minus 17 Pro and the N-terminal residue). The NMR sample was 15N-labelled or unlabelled. The His6-SUMO tag was removed. The smFRET version carries dyes at 120 and 265. Limits are not printed. They are inferred from 109 expected HSQC peaks (119 residues m); modification not given

Sox2 N-terminal domain and DBD (N-DBD), sequence (chain, as listed by the source): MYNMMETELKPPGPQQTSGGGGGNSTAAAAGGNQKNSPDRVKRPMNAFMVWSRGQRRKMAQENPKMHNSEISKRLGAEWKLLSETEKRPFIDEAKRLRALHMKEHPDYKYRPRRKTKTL

Kd [1]: 74 µM
Kd [2]: 93 µM
B1: Sox2 C-terminal intrinsically disordered region (C-IDR) (protein)
chain: MKKDKYTLPGGLLAPGGNSMASGVGVGAGLGAGVNQRMDSYAHMNGWSNGSYSMMQDQLGYPQHPGLNAHGAAQMQPMHRYDVSALQYNSMTSSQTYMNGSPTYSMSYSQQGTPGMALGSMGSVVKSEASSSPPVVTSSSHSRAPCQAGDLRDMISMYLPGAEVPEPAAPSRLHMSQHYQSGPVPGTAINGTLPLSHM
